# FireProtDB (doi:10.1002/prot.20496)
# Values joined by “and” are separate entries in the source; they are usually repeats but may differ in a detail not shown here. Equal values may be shown once.
# B1: Alpha-lactalbumin wild type, P00712 (protein)
# chain: MMSFVSLLLVGILFHATQAEQLTKCEVFQKLKDLKDYGGVSLPEWVCTAFHTSGYDTQAIVQNNDSTEYGLFQINNKIWCKDDQNPHSRNICNISCDKFLDDDLTDDIVCAKKILDKVGINYWLAHKALCSEKLDQWLCEKL
# Details: Capra hircus, pH 7.5, Thermal, Tris-HCl 10 mM, CaCl2 2 mM, whole UniProt chain shown
protein,measurement,setting,value
B1,Tm,DSC,71 °C and 71.1 °C
same,Tm,Fluorescence,70.7 °C and 71.2 °C and 69.9 °C
